Here are results for 3 molecules from US20240327516A1 (Zymeworks, published 2024).

The target of assay [1] is T1, mesothelin (MSLN) on MSLN-expressing tumor cells (human, UniProt Q13421 296-598).
In assay [2] the target is T1, mesothelin (MSLN) on MSLN-expressing …. Kind of assay: cell-based or functional assay.
For assay [3], the target named is MSLN (form in the assay not stated) (UniProt Q13421 296-580). Kind of assay: method and antigen form not stated in Table 12.
For assay [4], the target named is T2, CD3 on CD3+ Jurkat cells and primary human T cells (human, UniProt P07766 23-207).
T2 construct: whole, on cells; also called native CD3; CD3ε
T2 sequence (P07766 23-207): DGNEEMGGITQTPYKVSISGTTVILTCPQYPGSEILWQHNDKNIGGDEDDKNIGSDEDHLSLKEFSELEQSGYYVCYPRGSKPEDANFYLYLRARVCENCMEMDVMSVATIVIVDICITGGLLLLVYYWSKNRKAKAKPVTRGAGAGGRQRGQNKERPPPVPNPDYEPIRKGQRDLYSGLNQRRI
The assay is described as follows: whole-cell ELISA on CD3+ Jurkat cells, apparent affinity.

Assay [5] addresses T2, CD3 on CD3+ Jurkat cells and primary …. Kind of assay: whole-cell flow cytometry on primary human T cells, apparent affinity.

T1 sequence (Q13421 other isoform, or with tags, fused parts or gaps limits assumed): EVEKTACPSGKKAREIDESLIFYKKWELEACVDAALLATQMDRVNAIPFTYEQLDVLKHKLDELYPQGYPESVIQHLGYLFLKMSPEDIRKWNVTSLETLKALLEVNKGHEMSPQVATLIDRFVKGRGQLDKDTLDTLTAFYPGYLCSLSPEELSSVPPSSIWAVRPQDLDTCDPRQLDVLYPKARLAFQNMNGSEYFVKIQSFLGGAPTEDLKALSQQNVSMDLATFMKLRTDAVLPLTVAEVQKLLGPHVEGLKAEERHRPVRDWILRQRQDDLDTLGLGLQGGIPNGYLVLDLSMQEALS
Sequence of MSLN (form in the assay not stated) (Q13421 other isoform, or with tags, fused parts or gaps limits assumed): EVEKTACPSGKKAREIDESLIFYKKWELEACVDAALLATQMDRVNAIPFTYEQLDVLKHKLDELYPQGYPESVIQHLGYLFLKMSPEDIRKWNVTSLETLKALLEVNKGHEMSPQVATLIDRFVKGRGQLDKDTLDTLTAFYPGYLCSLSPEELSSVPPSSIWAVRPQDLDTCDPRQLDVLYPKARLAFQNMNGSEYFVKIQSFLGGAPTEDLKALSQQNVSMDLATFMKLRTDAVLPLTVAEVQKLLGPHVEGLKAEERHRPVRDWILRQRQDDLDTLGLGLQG

B1: v18490, anti-MSLN antibody (mAb, MSLN (SS) Fab x 2) (antibody, human IgG1, kappa, L234A L235A)
heavy 1: QVQLVQSGAEVKKPGASVKVSCKASGYSFTGYTMNWVRQAPGQGLEWMGLITPYNGASSYNQKFRGKATMTVDTSTSTVYMELSSLRSEDTAVYYCARGGYDGRGFDYWGQGTLVTVSSASTKGPSVFPLAPSSKSTSGGTAALGCLVKDYFPEPVTVSWNSGALTSGVHTFPAVLQSSGLYSLSSVVTVPSSSLGTQTYICNVNHKPSNTKVDKKVEPKSCDKTHTCPPCPAPEAAGGPSVFLFPPKPKDTLMISRTPEVTCVVVSVSHEDPEVKFNWYVDGVEVHNAKTKPREEQYNSTYRVVSVLTVLHQDWLNGKEYKCKVSNKALPAPIEKTISKAKGQPREPQVYVLPPSRDELTKNQVSLLCLVKGFYPSDIAVEWESNGQPENNYLTWPPVLDSDGSFFLYSKLTVDKSRWQQGNVFSCSVMHEALHNHYTQKSLSLSPG
heavy 2: not shown
light: DIQMTQSPSSLSASVGDRVTITCSASSSVSYMHWYQQKSGKAPKLLIYDTSKLASGVPSRFSGSGSGTDFTLTISSLQPEDFATYYCQQWSGYPLTFGQGTKLEIKRTVAAPSVFIFPPSDEQLKSGTASVVCLLNNFYPREAKVQWKVDNALQSGNSQESVTEQDSKDSTYSLSSTLTLSKADYEKHKVYACEVTHQGLSSPVTKSFNRGEC
By EC50 is commonly meant the midpoint of the concentration-response curve. B1 yielded an EC50 in assay [1] of 1.6 nM.

B2: v29045, trivalent and bispecific antibody construct [MSLN (2 scFv) x CD3 (1 Fab)] (bispecific antibody, human IgG1, lambda, L234A L235A)
heavy 1: not shown
heavy 2: QVQLVQSGAEVKKPGASVKISCKASGYSFTGYTMNWVRQAPGQGLEWIGLITPYSGASSYAQKFQGRATLTVDKSTSTAYMELSSLRSEDTAVYYCARGGYDGRGFDYWGQGTLVTVSSGGGGSGGGGSGGGGSEIVLTQSPATLSLSPGERVTMSCSASSSVSYMHWYQQKPGQAPRLWIYDTSKLASGVPARFSGSGSGTDYTLTISSVEPEDFAVYYCQQWSGYPLTFGQGTKVEIKAAEPKSSDKTHTCPPCPAPEAAGGPSVFLFPPKPKDTLMISRTPEVTCVVVSVSHEDPEVKFNWYVDGVEVHNAKTKPREEQYNSTYRVVSVLTVLHQDWLNGKEYKCKVSNKALPAPIEKTISKAKGQPREPQVYVLPPSRDELTKNQVSLLCLVKGFYPSDIAVEWESNGQPENNYLTWPPVLDSDGSFFLYSKLTVDKSRWQQGNVFSCSVMHEALHNHYTQKSLSLSPG
light: NFMLTQPHSVSESPGKTVTISCKRNTGNIGSNYVNWYQQHEGSSPTTIIYRNDKRPDGVSDRFSGSIDRSSKSASLTISNLKTEDEADYFCQSYSSGFIFGGGTKLTVLGQPKAAPSVTLFPPSSEELQANKATLVCLISDFYPGAVTVAWKADSSPVKAGVETTTPSKQSNNKYAASSYLSLTPEQWKSHRSYSCQVTHEGSTVEKTVAPTECS
Consider B2, for which the concentration for a half-maximal effect (EC50) in assay [1] amounted to 0.4 nM; in assay [4] it was 1.3 nM. Besides, the “IC50 of T cell-dependent cytotoxicity on OVCAR-3 cells (pan T cells, E:T 5:1, 72 h)” value in assay [2] came to 0.0272 nM. The “Affinity to MSln” value in assay [3] was 62.6 nM.

B3: v31926, negative control antibody [Hemagglutinin (HA) (2 scFv) x CD3 (1 Fab)] (bispecific antibody)
heavy 1: not shown
heavy 2: QVQLVQSGAEVKKPGASVRVSCRASGYIFTESGITWVRQAPGQGLEWMGWISGYSGDTKYAQKLQGRVTMTKDTSTTTAYMELRSLRYDDTAVYYCARDVQYSGSYLGAYYFDYWSPGTLVTVSSGGGGSGGGGSGGGGSGGGQSVLTQPPSASGTPGQRVTISCSGSSSNIGTNYVYWYQQFPGTAPKLLIYRSYQRPSGVPDRFSGSKSGSSASLAISGLQSEDEADYYCATWDDSLDGWVFGGGTKLTVLAAEPKSSDKTHTCPPCPAPEAAGGPSVFLFPPKPKDTLMISRTPEVTCVVVSVSHEDPEVKFNWYVDGVEVHNAKTKPREEQYNSTYRVVSVLTVLHQDWLNGKEYKCKVSNKALPAPIEKTISKAKGQPREPQVYVLPPSRDELTKNQVSLLCLVKGFYPSDIAVEWESNGQPENNYLTWPPVLDSDGSFFLYSKLTVDKSRWQQGNVFSCSVMHEALHNHYTQKSLSLSPG
light: NFMLTQPHSVSESPGKTVTISCKRNTGNIGSNYVNWYQQHEGSSPTTIIYRNDKRPDGVSDRFSGSIDRSSKSASLTISNLKTEDEADYFCQSYSSGFIFGGGTKLTVLGQPKAAPSVTLFPPSSEELQANKATLVCLISDFYPGAVTVAWKADSSPVKAGVETTTPSKQSNNKYAASSYLSLTPEQWKSHRSYSCQVTHEGSTVEKTVAPTECS
Regarding B3, in assay [5], the EC50 is 102 nM.
